This is an account of results in the supplement of paper PMC12042874.

± gives the uncertainty stated by the source.

The nature of the data set: amyloid nucleation score (Sup35N fusion, yeast selection) (log enrichment); library NNK3; higher = more nucleation; inactive = no reads after selection. Summed up: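 Libraries of peptides of 20 random codons fused to Sup35N were expressed in psi-negative yeast and induced 24 hours with 100 μM copper sulfate. Selection was 7 days at 30°C on medium lacking adenine and uracil, and plasmid inserts were Illumina-sequenced before and after selection. Nucleation score is the DiMSum log enrichment of output over input reads, centred on the mode score of non-aggregating sequences, and sequences with under 100 input reads were left out.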
For NLPHIYRDHRRFWVGFSIMT, the amyloid nucleation score is 1.12 ± 0.17.

Regarding NLRSS, the amyloid nucleation score result is “inactive”.

NLSALMLLLQDRDRAISRPR came in with an amyloid nucleation score of 0.919 ± 0.21.

As to NLSRLKRFYIANSR, the amyloid nucleation score entry is “inactive”.

Take NLTLVVHYISRQSISEHYLR: the amyloid nucleation score result is “inactive”.

Take NLVRSDSVRFAYVKWGPMHG: the amyloid nucleation score entry was “inactive”.

In the case of NLVSVSRSYIKCVDRHRRTA, the amyloid nucleation score result is “inactive”.

Take NMDSVV: the amyloid nucleation score result was “inactive”.

NMETYLFANVMLFGKPGLLS gave an amyloid nucleation score of 1.01 ± 0.12.

NMHRNSSIRDRSVIRTWGMV: the amyloid nucleation score entry was “inactive”.

Turning to NMIKPSFFIIVVVNTQGFDA, the amyloid nucleation score stood at 2.97 ± 0.063.

NMIWANEQE: the amyloid nucleation score result was “inactive”.

The substance NMMSGRSQSVINFVYVDFHP showed an amyloid nucleation score of -0.183 ± 0.66.

Turning to NMRCSIHARGSRHGVRDDTQ, the amyloid nucleation score result was “inactive”.

Substance NMRKLVCDMEIWMIFCAKSN gave an amyloid nucleation score of 0.505 ± 0.28.

NMSPGEP: the amyloid nucleation score result was “inactive”.

In turn, NMTTGYGAMGFRVVEAWFGC returned an amyloid nucleation score of 1.13 ± 0.11.

In the case of NMVDCGISLV, the amyloid nucleation score result is “inactive”.

On to NMVNAIFSAVGLQGFRLFPR, for which the amyloid nucleation score result was “inactive”.

NMWWNGSETNCESRVFEIET: the amyloid nucleation score result is “inactive”.

Turning to NNCRSLY, the amyloid nucleation score was determined as 0.927 ± 0.21.

In the case of NNCSQVHKTRD, the amyloid nucleation score entry was “inactive”.

As for NNCVGCPCFSYRS, the amyloid nucleation score was 3.04 ± 0.072.

NNDYADLRWGKSVGKASGWG: the amyloid nucleation score result was “inactive”.

Substance NNFRVNVHIIALVPECYFRL registered an amyloid nucleation score of 2.44 ± 0.077.

For NNGFGSWGV, the amyloid nucleation score result is “inactive”.

On to NNLEFQFNWRLEVGFC, for which the amyloid nucleation score entry is “inactive”.

NNNFRKDSS: the amyloid nucleation score result is “inactive”.

NNYVMA: the amyloid nucleation score was -0.231 ± 1.1.

As for NPDLVFWFKYLWYDGSCQ, the amyloid nucleation score entry is “inactive”.

Turning to NPETASLNLIKMSMHVSSFV, the amyloid nucleation score entry was “inactive”.

For the substance NPLCTSYNQHPRGYHALTYN, the amyloid nucleation score result is “inactive”.

As to NPRTRFILNLPVFPSYHEHP, the amyloid nucleation score entry was “inactive”.

With NQALNILFYLNSSKSCVYPY, the amyloid nucleation score came out at 2.47 ± 0.063.

Take NQARHRSSIRRCG: the amyloid nucleation score result is “inactive”.

Consider NQQWIP, for which the amyloid nucleation score entry is “inactive”.

In the case of NQVVAVG, the amyloid nucleation score result is “inactive”.

With NRCKLNVAGHLCANRTRRFR, the amyloid nucleation score entry was “inactive”.

As to NRCQKSVVYLSLVYYHGIGM, the amyloid nucleation score result was “inactive”.

As to NRIMGVGLY, the amyloid nucleation score entry is “inactive”.

For NRIVTVLMFCWLEG, the amyloid nucleation score entry was “inactive”.

On to NRLFTH, for which the amyloid nucleation score entry is “inactive”.

Turning to NRMNKSEDGTSKCFESDRWG, the amyloid nucleation score entry is “inactive”.

In the case of NRRIMVSSFRKVFLSGYGWF, the amyloid nucleation score result was “inactive”.

In the case of NRSPLCLKC, the amyloid nucleation score entry is “inactive”.

Take NRVDIRLVKCYWSGDSGGVE: the amyloid nucleation score entry is “inactive”.

As to NRYLFLIGSA, the amyloid nucleation score entry is “inactive”.

In the case of NSFSLGNSLNPYKAAPRRML, the amyloid nucleation score entry is “inactive”.

As to NSFYNWSSEKKL, the amyloid nucleation score entry was “inactive”.

Take NSLVLTLLNLVGKSLHHFYN: the amyloid nucleation score entry is “inactive”.

For NSNGCVQGQRFSWPWVGRLA, the amyloid nucleation score result is “inactive”.

NSQRASCSSLTYRSELYGNS: the amyloid nucleation score entry is “inactive”.

As for NSVNMTRCRVYTCFAFCNW, the amyloid nucleation score is 3.13 ± 0.07.

With NSVQAWPMIELEQPLKSLVQ, the amyloid nucleation score entry is “inactive”.

Turning to NSVRYLTWVAFLVCLMAYML, the amyloid nucleation score result was “inactive”.

In the case of NSYEEWSKWHFSNWSGFSGC, the amyloid nucleation score entry is “inactive”.

In the case of NSYKVLTYVFCQVRANTIYC, the amyloid nucleation score came to 2.04 ± 0.059.

With NTCKRYGEVI, the amyloid nucleation score was 2.2 ± 0.058.

In the case of NTEGCSSQICRN, the amyloid nucleation score result is “inactive”.

Turning to NTIHITTWDELVQLAQCDNL, the amyloid nucleation score entry was “inactive”.

With NTLDERDCRSKLFAFLLRPS, the amyloid nucleation score result was “inactive”.

NTLGGRLLSLCARGMAIDCL showed an amyloid nucleation score of 0.625 ± 0.35.

As for NTNGMQDLSLCCRCYDTELR, the amyloid nucleation score result was “inactive”.

For the substance NTPGYSELIVFGST, the amyloid nucleation score entry is “inactive”.

Take NTPNCYFVLRRVILMRLKLS: the amyloid nucleation score entry is “inactive”.

For NTRLSRLKIVFPCL, the amyloid nucleation score entry is “inactive”.

NTSWLNSWATVITIWPYCAL yielded an amyloid nucleation score of 0.724 ± 0.2.

In the case of NTVTHR, the amyloid nucleation score result was “inactive”.

As for NTYRMMKGLSPVFMKMLCTP, the amyloid nucleation score result was “inactive”.

Consider NVADALS, for which the amyloid nucleation score entry was “inactive”.

On to NVALVRTGVIHWSYSVISRV, for which the amyloid nucleation score result is “inactive”.

Take NVCAVNFAWSITIWRYNY: the amyloid nucleation score entry was “inactive”.

With NVDGVVLDCLSSLDSEWGYV, the amyloid nucleation score result is “inactive”.

Take NVFIHLFTILALGFHL: the amyloid nucleation score entry was “inactive”.

Take NVHVISVFGFYEVTLFNDEV: the amyloid nucleation score result is “inactive”.

Turning to NVIMCLRCQY, the amyloid nucleation score was 2.03 ± 0.1.

With NVQSSGSRGAR, the amyloid nucleation score result is “inactive”.

Substance NVSYLGEVWYKFRLCVVCSR gave an amyloid nucleation score of 0.159 ± 0.27.

NVTDVMRNISMTQLMFYLFA had an amyloid nucleation score of 1.74 ± 0.062.

With NVYYSPFCWCMPDMFFDSIC, the amyloid nucleation score amounted to 2.88 ± 0.08.

For the substance NWAGLHIVKYRLPPHTHLWH, the amyloid nucleation score entry is “inactive”.

NWAGRLWLTV: the amyloid nucleation score result is “inactive”.

Substance NWGRKCLFSSWCLLYVDNGT yielded an amyloid nucleation score of 0.555 ± 0.2.

In the case of NWGSYSMDMRSCSGINRRP, the amyloid nucleation score entry was “inactive”.

As for NWKKCYVHYISSADYALRRF, the amyloid nucleation score result is “inactive”.

The substance NWKLYWYNVSCL gave an amyloid nucleation score of 1.65 ± 0.067.

In turn, NWLLRYLYCRTNFGCCYR returned an amyloid nucleation score of -0.552 ± 0.7.

As to NWMDDWSYVVVSF, the amyloid nucleation score is -1.13 ± 2.5.

In turn, NWSYRDGREPHYI displayed an amyloid nucleation score of 1.15 ± 0.12.

In the case of NWTYTAENPG, the amyloid nucleation score result is “inactive”.

With NYDFWVQTISECCELEFVM, the amyloid nucleation score entry is “inactive”.

Take NYECNGWVGFVLTVPYGTIW: the amyloid nucleation score entry is “inactive”.

Consider NYGTLMYTVL, for which the amyloid nucleation score result was “inactive”.

With NYHRDSDVLTIFVISCPFLR, the amyloid nucleation score result is “inactive”.

For the substance NYILSHWELV, the amyloid nucleation score entry was “inactive”.

For NYNCVVDNLSGKCMNEILGY, the amyloid nucleation score stood at 1.09 ± 0.097.

Consider NYPIA, for which the amyloid nucleation score entry is “inactive”.

Regarding NYRERS, the amyloid nucleation score result is “inactive”.

On to NYWIHVNVAMRVNYYRFFMF, for which the amyloid nucleation score entry is “inactive”.
